The values below come from PMC11476435, “Functional Relationships between L1CAM, LC3, ATG12, and Aβ” (International Journal of Molecular Sciences, 2024).

The chains are these.
B2: recombinant human ATG12 (autophagy-related protein 12) (natural protein, UniProt O94817 1-140, looked up)
chain: MAEEPQSVLQLPTSIAAGGEGLTDVSPETTTPEPPSSAAVSPGTEEPAGDTKKKIDILLKAVGDTPIMKTKKWAVERTRTIQGLIDFIKKFLKLVASEQLFIYVNQSFAPSPDQEVGTLYECFGSDGKLVLHYCKSQAWG
notes: source: bought: BIOZOL

Settings in all cases: both partners purified
The target of assay [1] is recombinant human LC3B (microtubule-associated protein 1 light-chain 3) (human, UniProt Q9GZQ8 1-120). The experiment in a line: ELISA; competition: recombinant LC3B, ATG12 or Aβ1-42 coated; L1Fc in solution alone or with a 20-fold molar excess of Aβ, L1-LIR peptide or mutated LIR peptide as competitor, 1 h at room temperature; detected with HRP-coupled anti-Fc antibody. (In general: An ELISA detects its analyte on a solid surface through an enzyme-linked reagent.)

The target of assay [2] is B2. Described as above.
For assay [3], the target named is T1, L1Fc, extracellular domain of mouse L1 fused to Fc from human IgG (mouse, UniProt P11627 35-1112).
T1 construct: The methods say that the Fc fusion presents dimers, not monomeric domains; also called extracellular domain of L1; soluble L1Fc chimera; source: recombinant, production and purification described in [111]
The assay can be described thus: ELISA; recombinant human ATG12 (10 µg/mL) coated on 384-well plates; different concentrations (1–200 µg/mL) of L1Fc or CHL1Fc in solution, 1 h at room temperature; detected with HRP-coupled anti-Fc antibody.

T1 sequence (P11627 35-1112): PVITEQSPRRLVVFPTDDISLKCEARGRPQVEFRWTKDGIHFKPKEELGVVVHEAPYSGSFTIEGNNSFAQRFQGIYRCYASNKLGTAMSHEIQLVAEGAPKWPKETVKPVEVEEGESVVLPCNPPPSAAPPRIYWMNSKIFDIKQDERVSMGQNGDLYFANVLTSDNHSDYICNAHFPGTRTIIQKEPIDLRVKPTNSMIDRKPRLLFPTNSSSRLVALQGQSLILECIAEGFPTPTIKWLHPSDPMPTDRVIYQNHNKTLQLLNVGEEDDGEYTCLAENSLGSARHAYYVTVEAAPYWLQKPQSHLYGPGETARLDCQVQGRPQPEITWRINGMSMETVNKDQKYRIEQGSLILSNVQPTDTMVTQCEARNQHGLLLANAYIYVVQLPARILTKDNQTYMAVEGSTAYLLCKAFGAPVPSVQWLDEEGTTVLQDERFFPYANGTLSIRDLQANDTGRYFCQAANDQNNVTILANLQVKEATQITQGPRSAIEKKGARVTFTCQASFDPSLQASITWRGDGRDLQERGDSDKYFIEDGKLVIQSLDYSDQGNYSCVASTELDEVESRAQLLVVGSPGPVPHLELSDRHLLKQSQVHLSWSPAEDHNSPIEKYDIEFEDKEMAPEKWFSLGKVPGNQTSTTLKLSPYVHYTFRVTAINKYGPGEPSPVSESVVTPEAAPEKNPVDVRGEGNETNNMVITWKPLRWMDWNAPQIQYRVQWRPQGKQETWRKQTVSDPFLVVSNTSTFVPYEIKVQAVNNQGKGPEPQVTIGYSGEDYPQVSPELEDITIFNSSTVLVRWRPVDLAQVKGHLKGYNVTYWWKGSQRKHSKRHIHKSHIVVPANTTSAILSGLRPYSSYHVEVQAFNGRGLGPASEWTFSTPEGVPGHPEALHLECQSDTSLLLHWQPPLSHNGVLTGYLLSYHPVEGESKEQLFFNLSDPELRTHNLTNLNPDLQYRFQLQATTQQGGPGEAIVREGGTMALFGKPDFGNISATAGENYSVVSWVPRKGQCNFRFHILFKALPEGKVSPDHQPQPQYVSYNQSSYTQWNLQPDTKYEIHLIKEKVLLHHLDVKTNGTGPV

B1: mouse L1-LIR peptide containing the extracellular LC3-interacting region (LIR) motif of L1 (peptide)
peptide: SHNGVLTGYLLSYHPVEGESKEQ
notes: 23-amino-acid peptide of mouse L1 with the LIR motif 952LSYHPV957 of the fourth fibronectin type III homologous repeat; source: synthetic peptide, bought: Schafer-N
Consider B1, for which the binding result in assay [1] and in assay [2] was “binds” each time.

For the molecule B2, in assay [3], the binding result is reported as “binds”.
